B1: GST-Dyn1xA-PRR (dynamin 1xA proline-rich region, amino acids 746-864) [rat] / Amphiphysin 1 [rat (endogenous in rat brain synaptosomes)] (parent complex)
chain 1: NTTTVSTPMPPPVDDSWLQVQSVPAGRRSPTSSPTPQRRAPAVPPARPGSRGPAPGPPPAGSALGGAPPVPSRPGASPDPFGPPPQVPSRPNRAPPGVPSRSGQASPSRPESPRPPFDL
chain 2: MADIKTGIFAKNVQKRLNRAQEKVLQKLGKADETKDEQFEEYVQNFKRQEAEGTRLQRELRGYLAAIKGMQEASMKLTESLHEVYEPDWYGREDVKMVGEKCDVLWEDFHQKLVDGSLLTLDTYLGQFPDIKNRIAKRSRKLVDYDSARHHLEALQSSKRKDESRISKAEEEFQKAQKVFEEFNVDLQEELPSLWSRRVGFYVNTFKNVSSLEAKFHKEIAVLCHKLYEVMTKLGDQHADKAFSIQGAPSDSGPLRIAKTPSPPEEASPLPSPTASPNHTLAPASPAPVRPRSPSQTRKGPPVPPLPKVTPTKELQQENIINFFEDNFVPEINVTTPSQNEVLEVKKEETLLDLDFDPFKPDVTPAGSAAATHSPMSQTLPWDLWTTSTDLVQPASGGSFNDFTQPQDTSLFTMQTDQNMAETEQALPTEPQAEEPPTTAAAPTAGLDLGLEMEEPKEEAAIPPGTDAGETVGTEGSTGEEAEAEKAALPAGEGESPEGAKIDVESTELASSESPQAAELEAGAPQEKVIPSVVIEPASNHEGEEHQETTTGTETREATEDVAPQGPAGEKQELATEPTPLDSQAATPAPAGAVDASLSAGDAAQELPPGFLYKVETLHDFEAANSDELTLQRGDVVLVVPSDSEADQDAGWLVGVKESDWLQYRDLATYKGLFPENFTRHLE

Variants of: B1
Test: GST pull-down, quantified Western blot; parent: 60; read off a plot

Row | Variant | response
1 | chain 1 R101A | ~51 normalized intensity

— paper PMC11329700 (2024)
